This is an account of results in article PMC10375748.

Assay [1] deals with ZZ peptide displayed on the CHO cell surface with the murine B7-1 transmembrane domain (from pEF1α-ZZ-B7). The assay can be described thus: flow cytometry on cells; stable CHO-ZZ cells (2 x 10^5 cells/sample) incubated with an excess of fluorescein-conjugated IgG of Table 2 for 40 min at 4 °C, washed with PBS; percentage of positive cells.
The target in assay [2] is ZZ peptide displayed on the CHO cell surface with the human PDGFR transmembrane domain (from pEF1α-ZZ-PDGFR). The assay can be described thus: flow cytometry on cells; CHO cells transiently transfected with the ZZ display plasmid, labelled with hIgG-FITC; percentage of ZZ-positive cells. In general terms: A flow cytometer gives signals particle by particle.
In assay [3] the target is ZZ peptide displayed on the CHO cell surface with the murine B7-1 transmembrane domain (from pEF1α-ZZ-B7). The assay is described as above.

Regarding “Donkey Anti-Rabbit IgG (H + L)-Cy3 (Jackson ImmunoResearch Laboratories 711-165-152) (antibody)”, the percentage of positive cells in assay [1] was 100%.

For the substance “Human IgG-FITC (Bersee BFR550) (antibody)”, the percentage of ZZ-positive cells was found to be 6.9% in assay [2] and 43.6% in assay [3]. The same substance returned a percentage of positive cells in assay [1] of 100%.

Substance “Rb pAb to 6× His tag (FITC) (Abcam Ab1206-250) (antibody)” had a percentage of positive cells in assay [1] of 100%.

In turn, “Rb pAb to HA tag (PE) (Abcam Ab72564) (antibody)” returned a percentage of positive cells in assay [1] of 100%.
